Results: paper PMC8573386 (Frontiers in Immunology, 2021)
Numbering of substitutions follows the chain as printed.

B1: 60C03 IgG (antibody)
VH: QVQLRESGPSLVKPSQTLSLTCTASGFSLSDKAVGWVRQAPGKALEWLGGIDTGGSTGYNPGLKSRLSITKDNSKSQVSLSVSSVTTEDSATYYCTTVHQETKKENSCPDGYTSGVECRFRGYTCANDGCWRVCSFTTCSGWMPASDTYRYEYHVDAWGQGLLVTVSS
VL: EAVLNQPSSVSGSLGQRVSITCSGSSSNVGNGYVSWYQLIPGSAPRTLIYGDTSRASGVPDRFSGSRSGNTATLTISSLQAEDEADYFCASAEDSSSNAVFGSGTTLTVL
notes: synthetic bovine IGHV1-7 (VHBUL) scaffold, FR1 to FR3; ultralong CDR-H3 (stalk and knob) of clone 60C03 from immunised cattle; FR4 of the synthetic VH domain; human IgG1 heavy chain constant regions; bovine VL (V30, VLλ30) deduced from PDB entries that share a CDR-identical light chain; human constant lambda region (CLλ); chimeric IgG1; all clones share one fixed light chain and VH scaffold and …
B2: 60E11 IgG (antibody)
VH: QVQLRESGPSLVKPSQTLSLTCTASGFSLSDKAVGWVRQAPGKALEWLGGIDTGGSTGYNPGLKSRLSITKDNSKSQVSLSVSSVTTEDSATYYCTTVHQRTRKTCPDGWRDGSDCPYGHRCGDYDCCGYGCYDGRGTNRFTGVVESYTYEWYVDAWGQGLLVTVSS
VL: B1 VL
notes: synthetic bovine IGHV1-7 (VHBUL) scaffold, FR1 to FR3; ultralong CDR-H3 (stalk and knob) of clone 60E11 from immunised cattle; FR4 of the synthetic VH domain; human IgG1 heavy chain constant regions; as the light chain of m3: bovine VL (V30, VLλ30) deduced from PDB entries that share a CDR-identical light chain; human constant lambda region (CLλ); chimeric IgG1; also called chimeric bovine × …
B3: 60F06 IgG (antibody)
VH: QVQLRESGPSLVKPSQTLSLTCTASGFSLSDKAVGWVRQAPGKALEWLGGIDTGGSTGYNPGLKSRLSITKDNSKSQVSLSVSSVTTEDSATYYCTTVHQRTEKIAKCPDGYSDARHCRDGCDCFGWDCFRSGAWAECYYEVYTYVHTYEHHVDAWGQGLLVTVSS
VL: B1 VL
notes: synthetic bovine IGHV1-7 (VHBUL) scaffold, FR1 to FR3; ultralong CDR-H3 (stalk and knob) of clone 60F06 from immunised cattle; FR4 of the synthetic VH domain; human IgG1 heavy chain constant regions; as the light chain of m3: bovine VL (V30, VLλ30) deduced from PDB entries that share a CDR-identical light chain; human constant lambda region (CLλ); chimeric IgG1; also called chimeric bovine × …
B4: 60H05 IgG (antibody)
VH: B1 VH with E101K, K103N, E105L, N106K
VL: B1 VL
notes: synthetic bovine IGHV1-7 (VHBUL) scaffold, FR1 to FR3; ultralong CDR-H3 (stalk and knob) of clone 60H05 from immunised cattle; FR4 of the synthetic VH domain; human IgG1 heavy chain constant regions; as the light chain of m3: bovine VL (V30, VLλ30) deduced from PDB entries that share a CDR-identical light chain; human constant lambda region (CLλ); chimeric IgG1; also called chimeric bovine × …
B5: 60C08 IgG (antibody)
VH: QVQLRESGPSLVKPSQTLSLTCTASGFSLSDKAVGWVRQAPGKALEWLGGIDTGGSTGYNPGLKSRLSITKDNSKSQVSLSVSSVTTEDSATYYCTTVHQKTIETTQKTCPDGYFYADTCWAYSCRCRDCDCCRSSGGCTYSRDSHTATYEWHVDAWGQGLLVTVSS
VL: B1 VL
notes: synthetic bovine IGHV1-7 (VHBUL) scaffold, FR1 to FR3; ultralong CDR-H3 (stalk and knob) of clone 60C08 from immunised cattle; FR4 of the synthetic VH domain; human IgG1 heavy chain constant regions; as the light chain of m3: bovine VL (V30, VLλ30) deduced from PDB entries that share a CDR-identical light chain; human constant lambda region (CLλ); chimeric IgG1; also called chimeric bovine × …
B6: 60D01 IgG (antibody)
VH: QVQLRESGPSLVKPSQTLSLTCTASGFSLSDKAVGWVRQAPGKALEWLGGIDTGGSTGYNPGLKSRLSITKDNSKSQVSLSVSSVTTEDSATYYCTTVHQETTKTASCPDGYAEHFGRGWGYWGCGGCDCCQENGAGGGWGNCGLYSTSYTYEHHIDAWGQGLLVTVSS
VL: B1 VL
notes: synthetic bovine IGHV1-7 (VHBUL) scaffold, FR1 to FR3; ultralong CDR-H3 (stalk and knob) of clone 60D01 from immunised cattle; FR4 of the synthetic VH domain; human IgG1 heavy chain constant regions; as the light chain of m3: bovine VL (V30, VLλ30) deduced from PDB entries that share a CDR-identical light chain; human constant lambda region (CLλ); chimeric IgG1; also called chimeric bovine × …

Assays:
[1] = target: T1, EGFR on EGFR-overexpressing tumor cell line A431 (Homo sapiens, A431 cells, UniProt P00533); assay: cell-based or functional assay
[2] = target: T1, EGFR on EGFR-overexpressing tumor cell …; assay: flow cytometry on cells; EGFR-positive A431 cells incubated 1 h on ice with antibody derivatives 0.05 nM to 1 µM, detected with Alexa Fluor 488 Fab goat antihuman IgG (H+L); apparent binding affinities; settings: one partner purified

Binder	ADCC EC50 killing: NK cell-mediated lysis of EGFR-overexpressing A431 cells, E:T 5:1 [1] [pM]	ADCC mean max killing of A431 cells (normalized to Cetuximab) [1] [%]	EC50 [2] [nM]
B1	26.5	103	3
B2	3.3	96	10.1
B3	4.8	108	3
B4	16.4	105	2.6
B5	58.7	92.1	0.9
B6	606	76.3	1.3
